Reference: PMC4191604 (Journal of Medicinal Chemistry, 2014)
Positions count from the first letter of the chain named. Where two headings read alike, the source gives them in different places.

Tests used:
Assay in all cases: SPR
[1] = target: T1, GBP1 GTPase (human GBP1, recombinant wild type) (human, UniProt P32455 1-592)
T1 sequence (looked up): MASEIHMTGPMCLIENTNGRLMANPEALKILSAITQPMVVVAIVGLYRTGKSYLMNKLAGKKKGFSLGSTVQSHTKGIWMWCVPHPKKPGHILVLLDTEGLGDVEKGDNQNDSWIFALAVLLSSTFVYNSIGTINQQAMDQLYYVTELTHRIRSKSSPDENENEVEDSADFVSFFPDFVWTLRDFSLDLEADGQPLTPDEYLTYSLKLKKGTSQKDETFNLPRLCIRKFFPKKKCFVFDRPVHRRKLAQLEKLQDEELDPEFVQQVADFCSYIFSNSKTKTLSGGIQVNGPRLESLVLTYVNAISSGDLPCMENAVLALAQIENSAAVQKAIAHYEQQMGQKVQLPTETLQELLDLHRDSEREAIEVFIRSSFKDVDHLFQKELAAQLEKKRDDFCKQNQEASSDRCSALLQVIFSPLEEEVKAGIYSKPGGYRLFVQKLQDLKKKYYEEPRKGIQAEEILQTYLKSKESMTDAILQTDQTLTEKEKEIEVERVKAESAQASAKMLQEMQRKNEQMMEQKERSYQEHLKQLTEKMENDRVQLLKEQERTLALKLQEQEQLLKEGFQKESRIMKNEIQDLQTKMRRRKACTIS

GBP1 mutant D103N = target: T2, GBP1 mutant D103N (human, UniProt P32455 1-592, D103N)
T2 sequence (looked up): T1 sequence (looked up) with D103N

GBP1 mutant Q72A = target: T3, GBP1 mutant Q72A (human, UniProt P32455 1-592, Q72A)
T3 sequence (looked up): T1 sequence (looked up) with Q72A

GBP1 mutant D184A = target: T4, GBP1 mutant D184A (human, UniProt P32455 1-592, D184A)
T4 sequence (looked up): T1 sequence (looked up) with D184A

[2] = target: T1, GBP1 GTPase (human GBP1, recombinant …); remark: listed apart in the source

Kd [1]: 38 ± 14 nM | Kd (GBP1 mutant D103N): 21 ± 1 nM | Kd (GBP1 mutant Q72A): 62 ± 2 nM | Kd (GBP1 mutant D184A): 80 ± 5 nM | Kd [2]: 67 ± 20 nM
B1: PIM1 (recombinant) (enzyme)
chain: not shown
